Source: IntAct's records for PubMed 21139563

B1: Importin-13 (Homo sapiens), O94829 (parent)
chain: MERREEQPGAAGAGAAPALDFTVENVEKALHQLYYDPNIENKNLAQKWLMQAQVSPQAWHFSWQLLQPDKVPEIQYFGASALHIKISRYWSDIPTDQYESLKAQLFTQITRFASGSKIVLTRLCVALASLALSMMPDAWPCAVADMVRLFQAEDSPVDGQGRCLALLELLTVLPEEFQTSRLPQYRKGLVRTSLAVECGAVFPLLEQLLQQPSSPSCVRQKVLKCFSSWVQLEVPLQDCEALIQAAFAALQDSELFDSSVEAIVNAISQPDAQRYVNTLLKLIPLVLGLQEQLRQAVQNGDMETSHGICRIAVALGENHSRALLDQVEHWQSFLALVNMIMFCTGIPGHYPVNETTSSLTLTFWYTLQDDILSFEAEKQAVYQQVYRPVYFQLVDVLLHKAQFPSDEEYGFWSSDEKEQFRIYRVDISDTLMYVYEMLGAELLSNLYDKLGRLLTSSEEPYSWQHTEALLYGFQSIAETIDVNYSDVVPGLIGLIPRISISNVQLADTVMFTIGALSEWLADHPVMINSVLPLVLHALGNPELSVSSVSTLKKICRECKYDLPPYAANIVAVSQDVLMKQIHKTSQCMWLMQALGFLLSALQVEEILKNLHSLISPYIQQLEKLAEEIPNPSNKLAIVHILGLLSNLFTTLDISHHEDDHEGPELRKLPVPQGPNPVVVVLQQVFQLIQKVLSKWLNDAQVVEAVCAIFEKSVKTLLDDFAPMVPQLCEMLGRMYSTIPQASALDLTRQLVHIFAHEPAHFPPIEALFLLVTSVTLTLFQQGPRDHPDIVDSFMQLLAQALKRKPDLFLCERLDVKAVFQCAVLALKFPEAPTVKASCGFFTELLPRCGEVESVGKVVQEDGRMLLIAVLEAIGGQASRSLMDCFADILFALNKHCFSLLSMWIKEALQPPGFPSARLSPEQKDTFSQQILRERVNKRRVKEMVKEFTLLCRGLHGTDYTADY

Variants of: B1
Details: with mgn_human MAGOH

effect of a mutation on the interaction	Variant
disrupting interaction	R803E
disrupting interaction	K802E
